Laboratory results taken from article PMC7515708, “Enhancer RNAs predict enhancer–gene regulatory links and are critical for enhancer function in neuronal systems”.

Legend:
[1] = biological target: CBP bromodomain (UniProt Q92793 1081-1197); assay: EMSA; same concentrations as HAT (up to 0.6 uM); no appreciable binding; 20 mM HEPES, 40 mM KCl, 1 mM EDTA, 0.2 mM DTT, 0.1 mg/ml BSA, 0.1% Tween-20, 20% glycerol, 0.1 mg/ml yeast tRNA; pH not stated; 1 h at 37 C; 1% agarose, 0.5x TBE; conditions: protein: commercial; tags: GST; label: fluorescein-12-UTP, internal
[2] = biological target: T1, CBP HAT domain (UniProt Q92793 1319-1710); assay: EMSA; 20 nM RNA, 0.05-0.6 uM protein, yeast tRNA 0.1 mg/ml; almost complete binding at 0.6 uM; 20 mM HEPES, 40 mM KCl, 1 mM EDTA, 0.2 mM DTT, 0.1 mg/ml BSA, 0.1% Tween-20, 20% glycerol, 0.1 mg/ml yeast tRNA; pH not stated; 1 h at 37 C; 1% agarose, 0.5x TBE; conditions: protein: commercial; tags: GST; label: fluorescein-12-UTP, internal
[3] = biological target: T1, CBP HAT domain; assay: EMSA; 20 nM RNA, 0.05-0.6 uM protein, yeast tRNA 0.1 mg/ml; 20 mM HEPES, 40 mM KCl, 1 mM EDTA, 0.2 mM DTT, 0.1 mg/ml BSA, 0.1% Tween-20, 20% glycerol, 0.1 mg/ml yeast tRNA; pH not stated; 1 h at 37 C; 1% agarose, 0.5x TBE; conditions: protein: commercial; tags: GST; label: fluorescein-12-UTP, internal
[4] = biological target: T1, CBP HAT domain; assay: competition; against labeled eRNA1; competitor up to 5 uM; 20 mM HEPES, 40 mM KCl, 1 mM EDTA, 0.2 mM DTT, 0.1 mg/ml BSA, 0.1% Tween-20, 20% glycerol, 0.1 mg/ml yeast tRNA; pH not stated; 1 h at 37 C; 1% agarose, 0.5x TBE; conditions: protein: commercial; tags: GST

T1 sequence (Q92793 1319-1710): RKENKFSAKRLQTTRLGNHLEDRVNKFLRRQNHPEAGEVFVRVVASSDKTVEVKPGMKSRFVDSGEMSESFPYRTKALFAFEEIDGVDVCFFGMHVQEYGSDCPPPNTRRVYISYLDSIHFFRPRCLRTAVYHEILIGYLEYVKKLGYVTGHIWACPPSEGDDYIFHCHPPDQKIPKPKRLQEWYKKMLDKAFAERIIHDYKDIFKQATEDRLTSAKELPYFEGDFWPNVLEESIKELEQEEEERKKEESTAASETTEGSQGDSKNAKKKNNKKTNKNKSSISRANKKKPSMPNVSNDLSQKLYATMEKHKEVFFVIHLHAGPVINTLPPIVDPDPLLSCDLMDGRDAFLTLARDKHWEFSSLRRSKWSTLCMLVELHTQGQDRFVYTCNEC
CBP bromodomain, sequence (Q92793 1081-1197): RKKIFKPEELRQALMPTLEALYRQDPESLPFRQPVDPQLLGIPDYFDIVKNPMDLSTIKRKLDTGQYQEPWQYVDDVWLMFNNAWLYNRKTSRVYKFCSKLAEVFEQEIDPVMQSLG

B1: Fos eRNA1 (150 nt), labeled (ssRNA)
RNA: UUCGGCGGAACCCAAUACAUGGAGUCUGGAGGUUAAGAGACUGCCAAGAAGUCAAGCGGAAAGAGAAACAAGAACGGGAAAGGAAGCUUGGCUGUUCUGUGGGCUUUGGGGCUUUGACCUUGUCUGGAAGCCAUAAACUCGGCUCGAGGG
B1: no binding [1]; binds [2].

B2: Fos eRNA3 (150), labeled (ssRNA)
RNA: CCUUACUAGCCGCUGAGCGUGCAGGCGUUGGGGACACUUUACACCGGGUUCAGAUUCCAGGGCCGCCACUCCAGGUGGAUAAUGAAGUACAGGCCAUAGUCUUUCUGUGCCCUAGACUGUCAUCUAUAACGUAAGCAUACUAGCAAGACC
B2: binds [3].

B3: ctrl RNA (150), labeled (ssRNA)
RNA: GCUGCCAUCUGUCACCUAACAGGAGGAGGCUGAGAGUUACUUGUCUGGGAGACUUGCUGAGAGACAAGGACAGGCCCUGGAUCUCCUCAAUGUAGCCUGUCCGGGACUAUUCAGUUCUAUGAGGGACUUCUUAGAGAAACUAGGGUGCCC
B3: binds [3].

B4: Fos eRNA1 (150 nt), unlabeled competitor (ssRNA)
RNA: B1 RNA
B4: binds [4].
